PMC8508666
Read-outs that look alike come from different tables or passages of the source. Blank lines part the entries; values can stand above or below the molecule they belong to.

Columns and labels:
[1] = target: Sec61α, N-terminally tagged with LgBiT (Oplophorus gracilirostris | not stated); test: split reporter (BiFC, NanoBiT); bimolecular luminescence complementation in living HeLa cells, 96-well plate, 24 h after co-transfection of one LgBiT and one SmBiT fusion plasmid (50 ng each); furimazine added, signal 4 min later; RLU normalised to the LgBiT fusion plus Halo-CS set to 1; forskolin (15 µM) lowered the rPKA-cPKA signal; digitonin plus trypsin eliminated the signals
[2] = target: Sec61β, C-terminally tagged with LgBiT (not stated | Oplophorus gracilirostris); test: as above
[3] = target: regulatory subunit of protein kinase A, C-terminally tagged with LgBiT (not stated | Oplophorus gracilirostris); test: as above
[4] = target: Sec61α, C-terminally tagged with LgBiT (not stated | Oplophorus gracilirostris); test: split reporter (BiFC, NanoBiT); synthetic peptide complementation: HeLa cells expressing a LgBiT fusion, furimazine, then 0.002% digitonin, then synthetic peptide (scrambled, actin, SmBiT 1-100 µM; HaBiT up to 100 nM); signal 4 min after the peptide; RLU normalised to the scrambled peptide set to 1
[5] = target: Sec61α, N-terminally tagged with LgBiT (Oplophorus gracilirostris | not stated); test: as above
[6] = target: Sec61β, C-terminally tagged with LgBiT (not stated | Oplophorus gracilirostris); test: as above
[7] = target: TRAPα, C-terminally tagged with LgBiT (not stated | Oplophorus gracilirostris); test: as above
[8] = target: TRAPβ, C-terminally tagged with LgBiT (not stated | Oplophorus gracilirostris); test: as above
[9] = target: regulatory subunit of protein kinase A, C-terminally tagged with LgBiT (not stated | Oplophorus gracilirostris); test: as above
[10] = target: TRAPα, C-terminally tagged with LgBiT (not stated | Oplophorus gracilirostris); test: split reporter (BiFC, NanoBiT); bimolecular luminescence complementation in living HeLa cells, 96-well plate, 24 h after co-transfection of one LgBiT and one SmBiT fusion plasmid (50 ng each); furimazine added, signal 4 min later; RLU normalised to the LgBiT fusion plus Halo-CS set to 1; forskolin (15 µM) lowered the rPKA-cPKA signal; digitonin plus trypsin eliminated the signals
[11] = target: Sec61α, C-terminally tagged with LgBiT (not stated | Oplophorus gracilirostris); test: split reporter (BiFC, NanoBiT); synthetic peptide complementation: HeLa cells expressing a LgBiT fusion, furimazine, then 0.002% digitonin, then synthetic peptide (scrambled, actin, SmBiT 1-100 µM; HaBiT up to 100 nM); signal 4 min after the peptide; RLU normalised to the scrambled peptide set to 1; remark: listed apart in the source
[12] = target: Sec61α, N-terminally tagged with LgBiT (Oplophorus gracilirostris | not stated); test: as above; remark: listed apart in the source
[13] = target: Sec61β, C-terminally tagged with LgBiT (not stated | Oplophorus gracilirostris); test: as above; remark: listed apart in the source
[14] = target: TRAPα, C-terminally tagged with LgBiT (not stated | Oplophorus gracilirostris); test: as above; remark: listed apart in the source
[15] = target: TRAPβ, C-terminally tagged with LgBiT (not stated | Oplophorus gracilirostris); test: as above; remark: listed apart in the source

Molecule: Sec61β, N-terminally tagged with SmBiT (from UniProt P60468 1-96) (natural protein)
- relative luminescence (RLU, Halo-CS control pair = 1) [1]: 141 RLU

Molecule: Sec63, N-terminally tagged with SmBiT (from UniProt Q9UGP8 1-760) (natural protein)
- relative luminescence (RLU, Halo-CS control pair = 1) [2]: 202 RLU

Molecule: catalytic subunit of protein kinase A, C-terminally tagged with SmBiT (from UniProt P17612 1-351) (enzyme)
- relative luminescence (RLU, Halo-CS control pair = 1) [3]: 613 RLU

B1: TRAPβ, C-terminally tagged with SmBiT (natural protein)
chain: EEGARLLASKSLLNRYAVEGRDLTLQYNIYNVGSSAALDVELSDDSFPPEDFGIVSGMLNVKWDRIAPASNVSHTVVLRPLKAGYFNFTSATITYLAQEDGPVVIGSTSAPGQGGILAQREFDRRFSPHFLDWAAFGVMTLPSIGIPLLLWYSSKRKYDTPKTKKN
- relative luminescence (RLU, Halo-CS control pair = 1) [10]: 91 RLU

B2: synthetic SmBiT peptide (11 + 1 aa) (peptide)
peptide: CVTGYRLFEEIL
- luminescence relative to the scrambled peptide [11]: 2 RLU
- luminescence relative to the scrambled peptide [12]: > 10 fold
- luminescence relative to the scrambled peptide [13]: > 10 fold
- luminescence relative to the scrambled peptide [14]: > 10 fold
- luminescence relative to the scrambled peptide [15]: > 10 fold

More lines, now with the values ahead:

- luminescence relative to the scrambled peptide [4]: 15 RLU
- luminescence relative to the scrambled peptide [5]: > 50 fold
- luminescence relative to the scrambled peptide [6]: > 50 fold
- luminescence relative to the scrambled peptide [7]: > 50 fold
- luminescence relative to the scrambled peptide [8]: > 50 fold
- fold activity over the SmBiT peptide [9]: 10000 fold
Molecule: synthetic HaBiT peptide (high affinity variant of SmBiT)

- relative luminescence (RLU, Halo-CS control pair = 1) [1]: 62 RLU
B3: TRAPα, C-terminally tagged with SmBiT (natural protein)
chain: VLFRGGPRGLLAVAQDLTEDEETVEDSIIEDEDDEAEVEEDEPTDLVEDKEEEDVSGEPEASPSADTTILFVKGEDFPANNIVKFLVGFTNKGTEDFIVESLDASFRYPQDYQFYIQNFTALPLNTVVPPQRQATFEYSFIPAEPMGGRPFGLVINLNYKDLNGNVFQDAVFNQTVTVIEREDGLDGETIFMYMFLAGLGLLVIVGLHQLLESRKRKRPIQKVEMGTSSQNDVDMSWIPQETLNQINKASPRRLPRKRAQKRSVGSDE
